# From US20230151089A1
# Columns and labels:
# [1] = molecular target: alpha-synuclein oligomers (UniProt P37840); assay: ELISA (Example 3), reference antibody 26F1
# [2] = molecular target: alpha-synuclein oligomers (UniProt P37840); assay: ELISA, alpha-Syn oligomer coated plate, exp 1
# [3] = molecular target: alpha-synuclein oligomers (UniProt P37840); assay: ELISA, alpha-Syn oligomer coated plate, exp 2
# [4] = molecular target: alpha-synuclein oligomers (UniProt P37840); assay: ELISA, alpha-Syn oligomer coated plate, exp 3
# [5] = molecular target: alpha-synuclein oligomers (UniProt P37840); assay: ELISA, ratio of EC50 values, reference alpha-Syn fibrils (FIG. 3)
# alpha-synuclein fibrils = alpha-synuclein fibrils (UniProt P37840); assay: ELISA on antigen-coated plate, antibody titrated in tenfold steps, OD 450-630 nm
# alpha-synuclein monomers = alpha-synuclein monomers (UniProt P37840); assay: as above
# [6] = molecular target: alpha-synuclein oligomers (UniProt P37840); assay: as above
Substance,fold weaker binding affinity to alpha-Syn oligomers than 26F1 [1] [fold],EC50 [2] [nM],EC50 [3] [nM],EC50 [4] [nM],binding affinity ratio alpha-Syn oligomers:alpha-Syn fibrils [5],EC50 (read off the curve) (alpha-synuclein fibrils) [nM],EC50 (read off the curve) (alpha-synuclein monomers) [nM],EC50 (read off the curve) [6] [nM]
5G4 antibody,> 2,0.2,0.6,0.6,–,–,–,–
MJFR14 antibody,–,0.06,0.06,0.14,1,0.02,0.02,0.02
